# Residue numbers refer to the chain shown, from its start. Names and notes keep the numbering of the source.
# B1: h10A11 IGKV4-1/IGHV3-73 K64R (antibody, name in Kabat numbering, V domains shown)
# VH: EVQLVESGGGLVQPGGSLKLSCAASGFAFNTYALYWVRQASGKGLEWVGRIRSKSNNYATYYADSVRDRFTISRDDSKNTAYLQMNSLKTEDTAVYYCTRARFYYSDYGYAMDYWGQGTLVTVSS
# VL: DIVMTQSPDSLAVSLGERATINCRSSKSLLHSNGNTYLYWYQQKPGQPPKLLIYRMSNLASGVPDRFSGSGSGTDFTLTISSLQAEDVAVYYCMQHLEYPLTFGQGTKLEIKR
# B2: h10A11 IGKV4-1/IGHV3-73 D65E (antibody, name in Kabat numbering, V domains shown)
# VH: B1 VH with R67K, D68E
# VL: B1 VL
# B3: h10A11 IGKV4-1/IGHV3-73 R96K (antibody, name in Kabat numbering, V domains shown)
# VH: B1 VH with R67K, R102K
# VL: B1 VL
# B4: h10A11 IGKV4-1/IGHV3-73 F97L (antibody, name in Kabat numbering, V domains shown)
# VH: B1 VH with R67K, F103L
# VL: B1 VL
# B5: h10A11 IGKV4-1/IGHV3-73 Y98F (antibody, name in Kabat numbering, V domains shown)
# VH: B1 VH with R67K, Y104F
# VL: B1 VL
# B6: h10A11 IGKV4-1/IGHV3-73 Y99F (antibody, name in Kabat numbering, V domains shown)
# VH: B1 VH with R67K, Y105F
# VL: B1 VL
# B7: h10A11 IGKV4-1/IGHV3-73 S100T (antibody, name in Kabat numbering, V domains shown)
# VH: B1 VH with R67K, S106T
# VL: B1 VL
# B8: h10A11 IGKV4-1/IGHV3-73 D100aE (antibody, name in Kabat numbering, V domains shown)
# VH: B1 VH with R67K, D107E
# VL: B1 VL
# B9: h10A11 IGKV4-1/IGHV3-73 Y100bF (antibody, name in Kabat numbering, V domains shown)
# VH: B1 VH with R67K, Y108F
# VL: B1 VL
# B10: h10A11 IGKV4-1/IGHV3-73 G100cA (antibody, name in Kabat numbering, V domains shown)
# VH: B1 VH with R67K, G109A
# VL: B1 VL
# B11: h10A11 IGKV4-1/IGHV3-73 Y100dF (antibody, name in Kabat numbering, V domains shown)
# VH: B1 VH with R67K, Y110F
# VL: B1 VL
# B12: h10A11 IGKV4-1/IGHV3-73 A100eV (antibody, name in Kabat numbering, V domains shown)
# VH: B1 VH with R67K, A111V
# VL: B1 VL
# B13: h10A11 IGKV4-1/IGHV3-73 M100fL (antibody, name in Kabat numbering, V domains shown)
# VH: B1 VH with R67K, M112L
# VL: B1 VL
# B14: h10A11 IGKV4-1/IGHV3-73 D101E (antibody, name in Kabat numbering, V domains shown)
# VH: B1 VH with R67K, D113E
# VL: B1 VL
# B15: h10A11 IGKV4-1/IGHV3-73 Y102F (antibody, name in Kabat numbering, V domains shown)
# VH: B1 VH with R67K, Y114F
# VL: B1 VL
# Biological target: human CCR8 (human) (UniProt P51685)
# Sequence (P51685 whole entry): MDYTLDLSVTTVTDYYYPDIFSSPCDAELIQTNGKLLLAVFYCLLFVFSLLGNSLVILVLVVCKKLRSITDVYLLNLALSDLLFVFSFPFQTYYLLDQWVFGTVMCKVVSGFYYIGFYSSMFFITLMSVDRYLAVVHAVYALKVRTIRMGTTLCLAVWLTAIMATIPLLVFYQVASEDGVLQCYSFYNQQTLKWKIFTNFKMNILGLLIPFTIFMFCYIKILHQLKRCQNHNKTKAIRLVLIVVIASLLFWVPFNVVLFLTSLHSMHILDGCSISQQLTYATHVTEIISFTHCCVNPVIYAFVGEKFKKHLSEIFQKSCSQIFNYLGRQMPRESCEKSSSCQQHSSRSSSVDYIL
# Experiment: cell-based or functional assay
Binder,IC50 ratio (WT IC50/mutant IC50),IC50 (n.d.: 10 nM or more)
B1,0.54,–
B2,1.3,–
B3,–,> 10 nM
B4,–,> 10 nM
B5,0.07,–
B6,0.8,–
B7,0.64,–
B8,0.3,–
B9,0.75,–
B10,0.07,–
B11,0.55,–
B12,0.49,–
B13,0.72,–
B14,–,> 10 nM
B15,0.99,–

# Source: US20220064312A1
